Source: PMC3466254, “Cthrc1, a Novel Circulating Hormone Regulating Metabolism” (PLoS ONE, 2012)

Molecular target: the molecule itself
Test: non-reducing SDS-PAGE with autoradiography; 1 µl of plasma of Cthrc1 null mice taken 30 min after intra-arterial injection of purified 125I-Cthrc1; SDS-PAGE under non-reducing conditions, autoradiography

B1: rat Cthrc1 with a C terminal myc/6×His tag, labeled with 125I (natural protein, UniProt Q8CG08 33-245, looked up)
chain: SENPKVKQKALIRQREVVDLYNGMCLQGPAGVPGRDGSPGANGIPGTPGIPGRDGFKGEKGECLRESFEESWTPNYKQCSWSSLNYGIDLGKIAECTFTKMRSNSALRVLFSGSLRLKCRNACCQRWYFTFNGAECSGPLPIEAIIYLDQGSPELNSTINIHRTSSVEGLCEGIGAGLVDVAIWVGTCSDYPKGDASTGWNSVSRIIIEELPK
modifications: labeled with 125I (iodination tubes); residues not stated
notes: Cthrc1 (collagen triple helix repeat containing 1), rat; secreted into the conditioned medium; also called 125I-Cthrc1; 125I-labeled Cthrc1
- binding result: binds
